Assay results taken from paper PMC6189496, “Epstein-Barr Virus Nuclear Antigen 3C Inhibits Expression of COBLL1 and the ADAM28-ADAMDEC1 Locus via Interaction with the Histone Lysine Demethylase KDM2B” (Journal of Virology, 2018).

T1: histone lysine demethylase KDM2B (human (endogenous in LCLs), UniProt Q8NHM5 1-1336)
T1 construct: KDM2B, endogenous in lymphoblastoid cell lines, immunoprecipitated with anti-KDM2B (09-864; Millipore); also called FBXL10; JHDM1B; source: endogenous, LCL lysate
T1 sequence (looked up): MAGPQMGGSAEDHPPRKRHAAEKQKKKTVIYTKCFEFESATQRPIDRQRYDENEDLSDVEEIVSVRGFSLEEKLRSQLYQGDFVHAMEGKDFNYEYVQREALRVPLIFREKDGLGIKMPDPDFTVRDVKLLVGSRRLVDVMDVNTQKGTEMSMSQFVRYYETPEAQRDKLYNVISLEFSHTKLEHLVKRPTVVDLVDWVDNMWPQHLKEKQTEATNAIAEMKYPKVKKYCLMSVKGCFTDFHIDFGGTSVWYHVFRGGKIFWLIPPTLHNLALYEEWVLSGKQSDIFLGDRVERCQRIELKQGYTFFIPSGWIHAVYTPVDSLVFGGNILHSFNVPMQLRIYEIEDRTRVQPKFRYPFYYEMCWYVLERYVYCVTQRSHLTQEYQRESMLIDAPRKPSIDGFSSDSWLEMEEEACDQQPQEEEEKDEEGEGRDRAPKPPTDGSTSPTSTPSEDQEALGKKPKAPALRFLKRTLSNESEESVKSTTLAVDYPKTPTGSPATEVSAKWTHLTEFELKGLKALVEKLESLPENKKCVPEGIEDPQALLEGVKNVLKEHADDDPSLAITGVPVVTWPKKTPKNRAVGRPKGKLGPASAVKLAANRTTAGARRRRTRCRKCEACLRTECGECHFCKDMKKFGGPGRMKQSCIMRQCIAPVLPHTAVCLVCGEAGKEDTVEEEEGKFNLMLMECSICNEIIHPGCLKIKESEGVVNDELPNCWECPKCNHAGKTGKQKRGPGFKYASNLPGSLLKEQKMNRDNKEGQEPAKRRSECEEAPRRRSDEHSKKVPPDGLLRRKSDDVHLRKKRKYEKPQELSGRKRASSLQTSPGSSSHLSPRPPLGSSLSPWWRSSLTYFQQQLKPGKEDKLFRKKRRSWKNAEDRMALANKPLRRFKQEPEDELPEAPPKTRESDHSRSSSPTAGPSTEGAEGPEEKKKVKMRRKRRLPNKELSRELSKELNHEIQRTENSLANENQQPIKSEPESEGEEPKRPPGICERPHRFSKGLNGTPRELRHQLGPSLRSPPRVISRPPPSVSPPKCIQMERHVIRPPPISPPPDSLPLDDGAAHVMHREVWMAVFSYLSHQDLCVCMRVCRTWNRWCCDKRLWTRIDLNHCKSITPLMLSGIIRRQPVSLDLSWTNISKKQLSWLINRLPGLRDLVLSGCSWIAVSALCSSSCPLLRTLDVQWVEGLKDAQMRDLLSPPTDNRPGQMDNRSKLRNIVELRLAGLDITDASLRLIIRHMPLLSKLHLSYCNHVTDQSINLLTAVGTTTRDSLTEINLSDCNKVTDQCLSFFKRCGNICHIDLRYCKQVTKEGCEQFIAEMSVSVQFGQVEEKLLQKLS

T2: BMI1 (human (endogenous in LCLs), UniProt P35226 1-326)
T2 construct: BMI1, endogenous in lymphoblastoid cell lines, immunoprecipitated with anti-BMI1 (A301-694A; Bethyl); also called PRC1 core component BMI1; source: endogenous, LCL lysate
T2 sequence (looked up): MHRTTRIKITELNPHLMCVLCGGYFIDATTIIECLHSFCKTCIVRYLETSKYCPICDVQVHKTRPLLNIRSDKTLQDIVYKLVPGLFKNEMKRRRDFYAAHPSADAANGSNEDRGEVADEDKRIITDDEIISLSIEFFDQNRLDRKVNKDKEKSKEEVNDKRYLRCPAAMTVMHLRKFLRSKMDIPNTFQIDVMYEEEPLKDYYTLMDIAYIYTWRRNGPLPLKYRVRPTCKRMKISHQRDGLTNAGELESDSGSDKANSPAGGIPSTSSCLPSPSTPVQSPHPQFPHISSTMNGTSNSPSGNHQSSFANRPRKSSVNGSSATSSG


Tests used:
[1] = target: T1, histone lysine demethylase KDM2B; assay: co-IP; LCL extracts (10^7 cells lysed in IP buffer, precleared); the cellular protein (RBPJ, BMI1, SUZ12 or KDM2B) immunoprecipitated from 200 ug lysate overnight at 4°C, protein G-Sepharose, four washes; Western blot for EBNA3C; isotype IgG control; mutants quantified by ImageJ as percent relative IP compared to EBNA3C WT; details: partners not purified
[2] = target: T2, BMI1; assay: as above; details: partners not purified

| Binder | percent relative IP compared to EBNA3C WT [1] | percent relative IP compared to EBNA3C WT [2] |
| --- | --- | --- |
| EBNA3C HDmut (209TFGC212 mutated to 209AAAA212) (natural protein, EBNA3C of Epstein-Barr virus, strain B95.8, with the TFGC (homology domain) motif mutated to alanines; also called homology domain mutant) MESFEGQGDSRQSPDNERGDNVQTTGEHDQDPGPGPPSSGASERLVPEESYSRDQQPWGQSRGDENRGWMQRIRRRRRRRAALSGHLLDTEDNVPPWLPPHDITPYTARNIRDAACRAVKQSHLQALSNLILDSGLDTQHILCFVMAARQRLQDIRRGPLVAEGGVGWRHWLLTSPSQSWPMGYRTATLRTLTPVPNRVGADSIMLTAAAAAQNAARTLNTFSATVWTPPHAGPREQERYAREAEVRFLRGKWQRRYRRIYDLIELCGSLHHIWQNLLQTEENLLDFVRFMGVMSSCNNPAVNYWFHKTIGNFKPYYPWNAPPNENPYHARRGIKEHVIQNAFRKAQIQGLSMLATGGEPRGDATSETSSDEDTGRQGSDVELESSDDELPYIDPNMEPVQQRPVMFVSRVPAKKPRKLPWPTPKTHPVKRTNVKTSDRSDKAEAQSTPERPGPSEQSSVTVEPAHPTPVEMPMVILHQPPPVPKPVPVKPTPPPSRRRRGACVVYDDDVIEVIDVETTEDSSSVSQPNKPHRKHQDGFQRSGRRQKRAAPPTVSPSDTGPPAVGPPAAGPPAAGPPAAGPPAAGPPAAGPPAAGPRILAPLSAGPPAAGPHIVTPPSARPRIMAPPVVRMFMRERQLPQSTGRKPQCFWEMRAGREITQMQQEPSSHLQSATQPTTPRPSWAPSVCALSVMDAGKAQPIESSHLSSMSPTQPISHEEQPRYEDPDAPLDLSLHPDVAAQPAPQAPYQGYQEPPAPQAPYQGYQEPPPPQAPYQGYQEPPAHGLQSSSYPGYAGPWTPRSQHPCYRHPWAPWSQDPVHGHTQGPWDPRAPHLPPQWDGSAGHGQDQVSQFPHLQSETGPPRLQLSLVPLVSSSAPSWSSPQPRAPIRPIPTRFPPPPMPLQDSMAVGCDSSGTACPSMPFASDYSQGAFTPLDINATTPKRPRVEESSHGPARCSQATAEAQEILSDNSEISVFPKDAKQTDYDASTESELD | 8% | 60% |
| EBNA3C W227S (natural protein, EBNA3C of Epstein-Barr virus, strain B95.8, with W227S in the 226VWTP229 motif) MESFEGQGDSRQSPDNERGDNVQTTGEHDQDPGPGPPSSGASERLVPEESYSRDQQPWGQSRGDENRGWMQRIRRRRRRRAALSGHLLDTEDNVPPWLPPHDITPYTARNIRDAACRAVKQSHLQALSNLILDSGLDTQHILCFVMAARQRLQDIRRGPLVAEGGVGWRHWLLTSPSQSWPMGYRTATLRTLTPVPNRVGADSIMLTATFGCQNAARTLNTFSATVSTPPHAGPREQERYAREAEVRFLRGKWQRRYRRIYDLIELCGSLHHIWQNLLQTEENLLDFVRFMGVMSSCNNPAVNYWFHKTIGNFKPYYPWNAPPNENPYHARRGIKEHVIQNAFRKAQIQGLSMLATGGEPRGDATSETSSDEDTGRQGSDVELESSDDELPYIDPNMEPVQQRPVMFVSRVPAKKPRKLPWPTPKTHPVKRTNVKTSDRSDKAEAQSTPERPGPSEQSSVTVEPAHPTPVEMPMVILHQPPPVPKPVPVKPTPPPSRRRRGACVVYDDDVIEVIDVETTEDSSSVSQPNKPHRKHQDGFQRSGRRQKRAAPPTVSPSDTGPPAVGPPAAGPPAAGPPAAGPPAAGPPAAGPPAAGPRILAPLSAGPPAAGPHIVTPPSARPRIMAPPVVRMFMRERQLPQSTGRKPQCFWEMRAGREITQMQQEPSSHLQSATQPTTPRPSWAPSVCALSVMDAGKAQPIESSHLSSMSPTQPISHEEQPRYEDPDAPLDLSLHPDVAAQPAPQAPYQGYQEPPAPQAPYQGYQEPPPPQAPYQGYQEPPAHGLQSSSYPGYAGPWTPRSQHPCYRHPWAPWSQDPVHGHTQGPWDPRAPHLPPQWDGSAGHGQDQVSQFPHLQSETGPPRLQLSLVPLVSSSAPSWSSPQPRAPIRPIPTRFPPPPMPLQDSMAVGCDSSGTACPSMPFASDYSQGAFTPLDINATTPKRPRVEESSHGPARCSQATAEAQEILSDNSEISVFPKDAKQTDYDASTESELD | 80% |  |
